Assay results published in article PMC7022617.

Legend:
[1] = tested on: hemagglutinin HA1 subunit H1 (recombinant, Abcam ab69741) (Influenza A virus H1 (strain not given)); assay: SPR
[2] = tested on: hemagglutinin HA1 subunit H3 (recombinant, Abcam ab69749) (Influenza A virus H3 (strain not given)); assay: SPR
[3] = tested on: hemagglutinin HA1 subunit H9 (recombinant, Abcam ab67740) (Influenza A virus H9 (strain not given)); assay: SPR
[4] = tested on: hemagglutinin H3 on virus particles (Influenza A virus A/England/42/1972 (H3N2)); assay: ELAA
[5] = tested on: hemagglutinin H7 on virus particles (Influenza A virus A/mallard/Sweden/91/2002 (H7N9)); assay: ELAA
[6] = tested on: hemagglutinin H9 on virus particles (Influenza A virus A/duck/Primorie/3628/2002 (H9N2)); assay: ELAA
[7] = tested on: hemagglutinin H5 on virus particles (Influenza A virus A/chicken/Kurgan/3654at/2005 (H5N1)); assay: ELAA

Row | Sequence | Kd [1] | Kd [2] | Kd [3] | Kd [4] | Kd [5] | Kd [6] | Kd [7]
1 | TTGGGGTTAGGGAGGGCGGGGGTT [G7-TTA] | 30 nM | 16 nM | 28 nM | – | – | – | –
2 | TTGGGGTAAGAAGGGAGGGCGGGGGTT [G7-TAAGAA] | 60 nM | 60 nM | 60 nM | – | – | – | –
3 | TTGGGGTTAGGGAGGGCGGGGGTT [5'-biotin G7-TTA] | – | – | – | 7 nM | 6 nM | 10 nM | 13 nM
4 | TTGGGGTAAGAAGGGAGGGCGGGGGTT [5'-biotin G7-TAAGAA] | – | – | – | 17 nM | 13 nM | 7 nM | 9 nM
5 | TTGGGGTTATTAAGGGAGGGCGGGGGTT [G7-TTATTAA] | 90 nM | 50 nM | 28 nM | – | – | – | –
6 | TTGGGGTTATTTTGGGAGGGCGGGGGTT [5'-biotin RHA0385] | – | – | – | 2 nM | 8 nM | 5 nM | 4 nM
7 | TTGGGGTTATTTTGGGAGGGCGGGGGTT [RHA0385] | 7 nM | 12 nM | 14 nM | – | – | – | –
8 | TTGGGGTTATTAAGGGAGGGCGGGGGTT [5'-biotin G7-TTATTAA] | – | – | – | 8 nM | 13 nM | 8 nM | 5 nM
